From patent US20220000983A1 (UNITED STATES GOVERNMENT AS REPRESENTED BY THE DEPARTMENT …, published 2022)
Starred links: 1 amine or outer side, 2 acyl side, 3 side chain; linkers in the order of their positions; H or OH if unused. Non-standard residues stand in square brackets, D forms with d. No end group written: not given here. *: point of attachment. Tyr(Me) = O-methyltyrosine, COc1ccc(C[C@H](N[*:1])C(=O)[*:2])cc1; Phenylacetyl(2,3,4,5,6-F5) = O=C(Cc1c(F)c(F)c(F)c(F)c1F)*; Phe(F5) = N[C@@H](Cc1c(F)c(F)c(F)c(F)c1F)C(=O)O; Phe(4-Cl) = N[C@@H](Cc1ccc(Cl)cc1)C(=O)O; hArg = N=C(N)NCCCC[C@H](N)C(=O)O; Nle = CCCC[C@H](N)C(=O)O; Orn = NCCC[C@H](N)C(=O)O; Abu = CC[C@H](N)C(=O)O; Ada = not defined here; Amp = not defined here; Cpa = not defined here; PhAc = O=C(Cc1ccccc1)*; Aoc = NCCCCCCCC(=O)O

Legend:
[1] = biological target: T1, GHRH receptor on rat pituitary cells (rat, UniProt Q02644 23-464); assay: cell-based or functional assay
T1 sequence (looked up): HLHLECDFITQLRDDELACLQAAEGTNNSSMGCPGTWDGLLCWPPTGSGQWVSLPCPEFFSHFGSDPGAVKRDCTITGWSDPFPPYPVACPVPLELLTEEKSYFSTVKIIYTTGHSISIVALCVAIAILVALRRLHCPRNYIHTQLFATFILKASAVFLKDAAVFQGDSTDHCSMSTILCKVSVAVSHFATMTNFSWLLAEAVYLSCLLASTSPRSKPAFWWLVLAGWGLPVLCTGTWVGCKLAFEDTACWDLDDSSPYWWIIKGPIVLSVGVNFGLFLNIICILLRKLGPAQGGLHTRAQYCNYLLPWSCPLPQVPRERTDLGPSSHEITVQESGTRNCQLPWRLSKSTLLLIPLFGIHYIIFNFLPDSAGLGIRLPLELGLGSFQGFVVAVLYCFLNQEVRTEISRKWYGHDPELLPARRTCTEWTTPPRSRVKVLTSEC

[2] = biological target: GHRH receptor (membrane GHRH-receptors on human anterior pituitary cells) (human) (UniProt Q02643); assay: competitive radioligand binding; displacement of 125I-[His1,Nle27]-hGH-RH(1-32)NH2 (0.2 nM) from human pituitary membrane fractions
[3] = biological target: T2, GHRH receptor (membrane GHRH-receptors on human anterior pituitary cells) (human, UniProt Q02643 23-423); assay: as above
T2 construct: whole, on cells; Native receptor in membrane fractions prepared from bought human pituitary (National Hormone and Peptide Program), not a recombinant construct; also called pituitary type GHRH-receptor; pGHRH-R
T2 sequence (looked up): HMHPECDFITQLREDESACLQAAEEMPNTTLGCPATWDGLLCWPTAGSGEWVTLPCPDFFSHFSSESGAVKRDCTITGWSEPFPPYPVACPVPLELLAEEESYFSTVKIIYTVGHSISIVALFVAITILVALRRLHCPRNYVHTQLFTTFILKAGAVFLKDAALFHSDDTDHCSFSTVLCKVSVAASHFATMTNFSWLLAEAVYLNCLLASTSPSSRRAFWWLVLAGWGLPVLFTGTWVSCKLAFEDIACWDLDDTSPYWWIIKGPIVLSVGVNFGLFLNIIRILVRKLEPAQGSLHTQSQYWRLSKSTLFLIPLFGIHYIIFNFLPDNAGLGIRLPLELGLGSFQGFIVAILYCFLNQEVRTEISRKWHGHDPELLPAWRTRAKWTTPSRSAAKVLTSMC
Protocol: Receptor binding affinities in vitro. Preparation of human pituitary membrane fractions and receptor binding of analogs of GH-RH were performed (Halmos G, Rekasi Z, Szoke B, Schally A V. (1993) Receptor 3:87-97). Human pituitary was purchased from the National Hormone and Peptide Program. […] The values were calculated from technical duplicate tubes.
Nineteen new AVR analogs of GHRH were tested in the receptor binding assay. Table 6 presents the IC₅₀ values of GHRH antagonists to membrane GHRH-receptors binding on human anterior pituitary cells.

Molecule | IC50 [3] [nM] | Relative GH release [1] | also measured
AVR-540 (peptide) | – | – | Relative GH release (relative to control (1.00)) [1]: 0.88
AVR-332 (peptide) | – | – | IC50 [2]: 0.34 nM
MIA-602 (peptide) | – | – | IC50 [2]: 0.27 nM; Relative GH release (relative to control (1.00)) [1]: 0.78
{Phenylacetyl(2,3,4,5,6-F5)-Ada}-Y[dR]DAI[Phe(4-Cl)]TA[hArg][Phe(F5)]RKVL[Abu]QLSARKLLQDI[Nle][dR][hArg]-{Ada-NH2} (reading uncertain, Synthetic GHRH antagonist) [AVR-353] | 0.11 | 0.65 relative to control (1.00) | –
{Phenylacetyl(2,3,4,5,6-F5)-Ada}-Y[dR]DAI[Phe(F5)]TA[hArg][Tyr(Me)]H[Orn]VL[Abu]QLSAH[Orn]LLQDI[Nle][dR][hArg]-{Ada-NH2} (reading uncertain, Synthetic GHRH antagonist) [AVR-553] | 0.15 | 0.82 relative to control (1.00) | –
{Phenylacetyl(2,3,4,5,6-F5)-Ada}-Y[dR]DAI[Cpa]TA[hArg][Phe(F5)]H[Orn]VL[Abu]QLSAH[Orn]LLQDI[Nle][dR][hArg]-{Ada-NH2} (reading uncertain, Synthetic GHRH antagonist) [AVR-552] | 0.17 | – | –
{PhAc-Ada}-Y[dR]DAI[Phe(4-Cl)]TAR[Tyr(Me)]RKVL[Abu]QLSAH[Orn]LLQDI[Nle][dR][hArg]-NH2 (reading uncertain, Synthetic GHRH antagonist) [AVR-104] | 0.59 | – | –
{Phenylacetyl(2,3,4,5,6-F5)-Ada}-Y[dR]DAI[Phe(F5)]TA[hArg][Tyr(Me)]RKVL[Abu]QLSARKLLQDI[Nle][dR]-NHMe (reading uncertain) [AVR-235] | 0.49 | 0.6 relative to control (1.00) | –
{PhAc-Ada}-Y[dR]DAI[Phe(4-Cl)]TN[hArg][Tyr(Me)]RKVL[Abu]QLSARKLLQDI[Nle][dR][hArg]-{Aoc-NHMe} (reading uncertain, Synthetic GHRH antagonist) [AVR-321] | 0.23 | – | –
{Phenylacetyl(2,3,4,5,6-F5)-Ada}-Y[dR]DAI[Phe(F5)]TA[hArg][Tyr(Me)]RKVL[Abu]QLSARKLLQDI[Nle][dR][hArg]-{Ada-NH2} (not fully specified; reading uncertain) [AVR-352] | 0.09 | 0.72 relative to control (1.00) | –
{PhAc-Ada}-Y[dR]DAI[Cpa]TARYRKVL[Abu]QLSARKLLQDI[Nle][dR][hArg]-NH2 (reading uncertain, Synthetic GHRH antagonist) [AVR-107] | 0.61 | – | –
{PhAc-Ada}-Y[dR]DAI[Cpa]TA[hArg][Phe(F5)]H[Orn]VL[Abu]QLSAH[Orn]LLQDI[Nle][dR][hArg]-NH2 (reading uncertain) [MIA-690] | 0.53 | – | –
{Phenylacetyl(2,3,4,5,6-F5)-Ada}-Y[dR]DAI[Cpa]TA[hArg][Phe(F5)]H[Orn]VL[Abu]QLSAH[Orn]LLQDI[Nle][dR][hArg]-{Ada-NHMe} (reading uncertain, Synthetic GHRH antagonist) [AVR-543] | 0.25 | 1.1 relative to control (1.00) | –
{PhAc-Ada}-Y[dR]DAI[Phe(4-Cl)]TNR[Tyr(Me)]RKVL[Abu]QLSARKLLQDI[Nle][dR][hArg]-NHMe (reading uncertain, Synthetic GHRH antagonist) [AVR-234] | 0.45 | – | –
{PhAc-Ada}-Y[dR]DAI[Phe(4-Cl)]TAR[Phe(F5)]RKVL[Abu]QLSAH[Orn]LLQDI[Nle][dR][hArg]-NH2 (reading uncertain, Synthetic GHRH antagonist) [AVR-116] | 0.5 | – | –
{Phenylacetyl(2,3,4,5,6-F5)-Ada}-Y[dR]DAI[Phe(4-Cl)]TA[hArg][Phe(F5)]RKVL[Abu]QLSARKLLQDI[Nle][dR][hArg] (not fully specified (C-terminus); reading uncertain) [AVR-354] | 0.14 | 0.9 relative to control (1.00) | –
{dF-Ada}-Y[dR]DAI[Phe(4-Cl)]TAR[Tyr(Me)]RKVL[Abu]QLSAH[Orn]LLQDI[Nle][dR][hArg]-NH2 (reading uncertain, Synthetic GHRH antagonist) [AVR-120] | 0.48 | – | –
{Phenylacetyl(2,3,4,5,6-F5)-Ada}-Y[dR]DAI[Cpa]TNR[Tyr(Me)]RKVL[Abu]QLSAH[Orn]LLQDI[Nle][dR][hArg]-{Ada-NH2} (reading uncertain, Synthetic GHRH antagonist) [AVR-620] | 0.31 | – | –
{Phenylacetyl(2,3,4,5,6-F5)-Ada}-Y[dR]DAI[Phe(4-Cl)]TN[hArg][Tyr(Me)]RKVL[Abu]QLSARKLLQDI[Nle][dR][hArg]-{Ada-NH2} (reading uncertain, Synthetic GHRH antagonist) [AVR-333] | 0.3 | 0.88 relative to control (1.00) | –
{PhAc-Ada}-Y[dR]DAI[Cpa]TAR[Amp]RKVL[Abu]QLSAH[Orn]LLQDI[Nle][dR][hArg]-NHMe (reading uncertain, Synthetic GHRH antagonist) [AVR-201] | 0.61 | – | –
{Phenylacetyl(2,3,4,5,6-F5)-Ada}-Y[dR]DAI[Cpa]TA[hArg][Phe(F5)]H[Orn]VL[Abu]QLSAH[Orn]LLQDI[Nle][dR][hArg]-NHMe (reading uncertain) [AVR-542] | 0.21 | – | –
{Phenylacetyl(2,3,4,5,6-F5)-Ada}-Y[dR]DAI[Phe(4-Cl)]TN[hArg][Tyr(Me)]RKVL[Abu]QLSARKLLQDI[Nle][dR][hArg]-{Aoc-NHMe} (reading uncertain, Synthetic GHRH antagonist) [AVR-322] | 0.25 | – | –
